According to patent US5885797, “Polynucleotide sequences encoding proteins involved in myogenesis” (Fred Hutchinson Cancer Research Center, dated 1999):

Experiments:
[1] = molecular target: T1, Myf5 (full length, mouse) (mouse, UniProt P24699); test: yeast one-hybrid, strain L40, β-galactosidase reporter
[2] = molecular target: T2, Myogenin (full length, mouse) (mouse, UniProt P12979); test: as above
[3] = molecular target: T3, VP16-I-mfb (mouse); test: yeast hybrid assay, strain L40, β-galactosidase reporter
T3 chain: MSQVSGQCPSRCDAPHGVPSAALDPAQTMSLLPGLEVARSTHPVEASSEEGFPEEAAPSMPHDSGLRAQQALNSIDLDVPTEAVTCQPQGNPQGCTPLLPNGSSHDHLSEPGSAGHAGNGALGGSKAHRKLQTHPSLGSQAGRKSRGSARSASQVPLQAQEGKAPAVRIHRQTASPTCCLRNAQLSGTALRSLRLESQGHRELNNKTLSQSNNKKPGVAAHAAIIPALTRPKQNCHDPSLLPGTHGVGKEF

[4] = molecular target: T1, Myf5 (full length, mouse); test: as above
[5] = molecular target: T1, Myf5 (full length, mouse); test: column 'Interaction with Myf5' of Table 4 (yeast hybrid assay of Table 3)
[6] = molecular target: T4, VP16-I-mfc (mouse); test: yeast hybrid assay, strain L40, β-galactosidase reporter
T4 chain: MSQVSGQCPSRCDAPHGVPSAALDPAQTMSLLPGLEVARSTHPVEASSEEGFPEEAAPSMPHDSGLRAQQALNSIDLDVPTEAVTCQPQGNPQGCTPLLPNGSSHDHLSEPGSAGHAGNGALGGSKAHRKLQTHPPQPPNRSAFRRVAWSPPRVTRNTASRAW

[7] = molecular target: MyoD (full length, mouse) (mouse, UniProt P10085); test: cell-based or functional assay
[8] = molecular target: T1, Myf5 (full length, mouse); test: cell-based or functional assay
[9] = molecular target: T2, Myogenin (full length, mouse); test: cell-based or functional assay
[10] = molecular target: T5, Lethal of Scute (AS-C T3) (Drosophila melanogaster (Fruit fly), UniProt P09774); test: yeast one-hybrid, strain L40, β-galactosidase reporter
T5 sequence: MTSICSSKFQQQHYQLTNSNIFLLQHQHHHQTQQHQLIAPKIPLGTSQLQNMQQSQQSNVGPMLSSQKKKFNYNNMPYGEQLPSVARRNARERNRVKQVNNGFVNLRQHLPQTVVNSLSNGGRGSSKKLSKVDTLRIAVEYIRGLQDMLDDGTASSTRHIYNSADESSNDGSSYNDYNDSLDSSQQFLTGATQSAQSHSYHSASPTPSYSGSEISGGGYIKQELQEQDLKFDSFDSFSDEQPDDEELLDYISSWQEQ

[11] = molecular target: T5, Lethal of Scute (AS-C T3); test: as above; remark: listed apart in the source

B1: LexA-I-mfc (other)
chain: MKALTARQQEVFDLIRDHISQTGMPPTRAEIAQRLGFRSPNAAEEHLKALARKGVIEIVSGASRGIRLLQEEEEGLPLVGRVAAGEPLLAQQHIEGHYQVDPSLFKPNADFLLRVSGMSMKDIGIMDGDLLAVHKTQDVRNGQVVVARIDDEVTVKRLKKQGNKVELLPENSEFKPIVVDLRQQSFTIEGLAVGVIRNGDWLMSQVSGQCPSRCDAPHGVPSAALDPAQTMSLLPGLEVARSTHPVEASSEEGFPEEAAPSMPHDSGLRAQQALNSIDLDVPTEAVTCQPQGNPQGCTPLLPNGSSHDHLSEPGSAGHAGNGALGGSKAHRKLQTHPPQPPNRSAFRRVAWSPPRVTRNTASRAW
In the case of B1, the β-galactosidase activity [1] is reported as 0.4 arbitrary units, the β-galactosidase activity [2] is reported as 0.3 arbitrary units and the β-galactosidase activity [3] is reported as < 0.1 arbitrary units. For the same binder, the β-galactosidase activity [4] was < 0.1 arbitrary units and the binding result [5] was “no binding”.

B2: LexA-I-mfa (87-202) (other)
chain: QPQGNPQGCTPLLPNGSSHDHLSEPGSAGHAGNGALGGSKAHRKLQTHPSLGSQAGRKSRGSARSASQVPLQAQEDCCVHCILSCLFCEFLTLCNILLDCATCGSCSSEDSCLCCC
In the case of B2, the β-galactosidase activity [3] is reported as 0.2 arbitrary units and the β-galactosidase activity [6] is reported as < 0.1 arbitrary units.

B3: LexA-I-mfa (1-202) (other)
chain: MSQVSGQCPSRCDAPHGVPSAALDPAQTMSLLPGLEVARSTHPVEASSEEGFPEEAAPSMPHDSGLRAQQALNSIDLDVPTEAVTCQPQGNPQGCTPLLPNGSSHDHLSEPGSAGHAGNGALGGSKAHRKLQTHPSLGSQAGRKSRGSARSASQVPLQAQEDCCVHCILSCLFCEFLTLCNILLDCATCGSCSSEDSCLCCC
For B3, the β-galactosidase activity [3] was < 0.1 arbitrary units and the β-galactosidase activity [6] was < 0.1 arbitrary units.

B4: I-mfa (other)
chain: MSQVSGQCPSRCDAPHGVPSAALDPAQTMSLLPGLEVARSTHPVEASSEEGFPEEAAPSMPHDSGLRAQQALNSIDLDVPTEAVTCQPQGNPQGCTPLLPNGSSHDHLSEPGSAGHAGNGALGGSKAHRKLQTHPSLGSQAGRKSRGSARSASQVPLQAQEDCCVHCILSCLFCEFLTLCNILLDCATCGSCSSEDSCLCCCCCGSGECADCDLPCDLDCGIVDACCESADCLEICMECCGLCFSS
In the case of B4, the “Relative CAT Activity (%), 4RCAT (10T/2 cells)” value (“Relative CAT Activity (%), 4RCAT” for short) [7] is reported as 56%, the “Relative CAT Activity (%), MCK-CAT (NIH3T3 cells)” value (“Relative CAT Activity (%), MCK-CAT” below) [7] is reported as 27% and the “Relative CAT Activity (%), 4RCAT” value [8] is reported as 13%. The “Relative CAT Activity (%), MCK-CAT” value [8] was 9% and the “Relative CAT Activity (%), MCK-CAT” value [9] was 2%.

B5: LexA (other)
chain: MKALTARQQEVFDLIRDHISQTGMPPTRAEIAQRLGFRSPNAAEEHLKALARKGVIEIVSGASRGIRLLQEEEEGLPLVGRVAAGEPLLAQQHIEGHYQVDPSLFKPNADFLLRVSGMSMKDIGIMDGDLLAVHKTQDVRNGQVVVARIDDEVTVKRLKKQGNKVELLPENSEFKPIVVDLRQQSFTIEGLAVGVIRNGDWL
B5 gave a β-galactosidase activity [2] of 0.6 arbitrary units.

B6: I-mfb (other)
chain: MSQVSGQCPSRCDAPHGVPSAALDPAQTMSLLPGLEVARSTHPVEASSEEGFPEEAAPSMPHDSGLRAQQALNSIDLDVPTEAVTCQPQGNPQGCTPLLPNGSSHDHLSEPGSAGHAGNGALGGSKAHRKLQTHPSLGSQAGRKSRGSARSASQVPLQAQEGKAPAVRIHRQTASPTCCLRNAQLSGTALRSLRLESQGHRELNNKTLSQSNNKKPGVAAHAAIIPALTRPKQNCHDPSLLPGTHGVGKEF
With B6 the “Relative CAT Activity (%), 4RCAT” value [7] was 95%, the “Relative CAT Activity (%), MCK-CAT” value [7] was 87% and the “Relative CAT Activity (%), 4RCAT” value [8] was 105%. For the same binder, the “Relative CAT Activity (%), MCK-CAT” value [8] was 132% and the “Relative CAT Activity (%), MCK-CAT” value [9] was 101%.

B7: LexA-I-mfa (87-246) (other)
chain: QPQGNPQGCTPLLPNGSSHDHLSEPGSAGHAGNGALGGSKAHRKLQTHPSLGSQAGRKSRGSARSASQVPLQAQEDCCVHCILSCLFCEFLTLCNILLDCATCGSCSSEDSCLCCCCCGSGECADCDLPCDLDCGIVDACCESADCLEICMECCGLCFSS
Work on B7 yielded a β-galactosidase activity [3] of 0.6 arbitrary units.

B8: I-mfc (other)
chain: MSQVSGQCPSRCDAPHGVPSAALDPAQTMSLLPGLEVARSTHPVEASSEEGFPEEAAPSMPHDSGLRAQQALNSIDLDVPTEAVTCQPQGNPQGCTPLLPNGSSHDHLSEPGSAGHAGNGALGGSKAHRKLQTHPPQPPNRSAFRRVAWSPPRVTRNTASRAW
In the case of B8, the “Relative CAT Activity (%), 4RCAT” value [7] is reported as 100%, the “Relative CAT Activity (%), MCK-CAT” value [7] is reported as 100% and the “Relative CAT Activity (%), 4RCAT” value [8] is reported as 101%. The “Relative CAT Activity (%), MCK-CAT” value [8] was 106% and the “Relative CAT Activity (%), MCK-CAT” value [9] was 111%.

B9: LexA-I-mfa (29-246) (other)
chain: MSLLPGLEVARSTHPVEASSEEGFPEEAAPSMPHDSGLRAQQALNSIDLDVPTEAVTCQPQGNPQGCTPLLPNGSSHDHLSEPGSAGHAGNGALGGSKAHRKLQTHPSLGSQAGRKSRGSARSASQVPLQAQEDCCVHCILSCLFCEFLTLCNILLDCATCGSCSSEDSCLCCCCCGSGECADCDLPCDLDCGIVDACCESADCLEICMECCGLCFSS
Binder B9 has a β-galactosidase activity [3] of 0.7 arbitrary units and a β-galactosidase activity [6] of 0.8 arbitrary units.

B10: LexA-I-mfb (other)
chain: MKALTARQQEVFDLIRDHISQTGMPPTRAEIAQRLGFRSPNAAEEHLKALARKGVIEIVSGASRGIRLLQEEEEGLPLVGRVAAGEPLLAQQHIEGHYQVDPSLFKPNADFLLRVSGMSMKDIGIMDGDLLAVHKTQDVRNGQVVVARIDDEVTVKRLKKQGNKVELLPENSEFKPIVVDLRQQSFTIEGLAVGVIRNGDWLMSQVSGQCPSRCDAPHGVPSAALDPAQTMSLLPGLEVARSTHPVEASSEEGFPEEAAPSMPHDSGLRAQQALNSIDLDVPTEAVTCQPQGNPQGCTPLLPNGSSHDHLSEPGSAGHAGNGALGGSKAHRKLQTHPSLGSQAGRKSRGSARSASQVPLQAQEGKAPAVRIHRQTASPTCCLRNAQLSGTALRSLRLESQGHRELNNKTLSQSNNKKPGVAAHAAIIPALTRPKQNCHDPSLLPGTHGVGKEF
For B10, the binding result [10] was “no binding”, the β-galactosidase activity [2] was 0.4 arbitrary units and the β-galactosidase activity [11] was 0.9 arbitrary units. The β-galactosidase activity [6] was < 0.1 arbitrary units.

B11: LexA-I-mfa (other)
chain: MKALTARQQEVFDLIRDHISQTGMPPTRAEIAQRLGFRSPNAAEEHLKALARKGVIEIVSGASRGIRLLQEEEEGLPLVGRVAAGEPLLAQQHIEGHYQVDPSLFKPNADFLLRVSGMSMKDIGIMDGDLLAVHKTQDVRNGQVVVARIDDEVTVKRLKKQGNKVELLPENSEFKPIVVDLRQQSFTIEGLAVGVIRNGDWLMSQVSGQCPSRCDAPHGVPSAALDPAQTMSLLPGLEVARSTHPVEASSEEGFPEEAAPSMPHDSGLRAQQALNSIDLDVPTEAVTCQPQGNPQGCTPLLPNGSSHDHLSEPGSAGHAGNGALGGSKAHRKLQTHPSLGSQAGRKSRGSARSASQVPLQAQEDCCVHCILSCLFCEFLTLCNILLDCATCGSCSSEDSCLCCCCCGSGECADCDLPCDLDCGIVDACCESADCLEICMECCGLCFSS
B11 showed a β-galactosidase activity [3] of 0.7 arbitrary units and a β-galactosidase activity [6] of 0.5 arbitrary units.
